In PMC9938168, “Structural basis for clearing of ribosome collisions by the RQT complex” (Nature Communications, 2023):
Values belong to the binder of their own block, whether it stands above or below them.

What was measured:
Settings in all cases: both partners purified
[1] = target: T1, Ski2-like helicase 1 (Slh1), subunit of the RQT complex, wild type (yeast, UniProt P53327 1-1967); test: cryo-EM structure; RQT-80S complex in conformation C1 (classical POST state); ubiquitinated CGN12-stalled disomes incubated 5 min at 25 °C with purified wild-type RQT and 1 mM ATP (post-splitting sample), vitrified; 80S refined to 2.4 Å, RQT locally refined to 3.5 Å
T1 construct: Slh1 (Rqt2), ATP-dependent Ski2-like RNA helicase of yeast RQT, 1967 amino acids; NTC residues 217-1122 and CTC residues 1123-1967 modelled, N-terminal domain 1-217 not visible; Co-purified with Cue3 and Rqt4 as the trimeric RQT complex; Eluted by TEV cleavage of the FTP tag; also called Rqt2; Slh1-FTP; source: yeast strain overexpressing RQT components (Slh1-FTP, Cue3, Rqt4), purified …
T1 sequence (P53327 whole entry, the tested form may be a part, one chain of several): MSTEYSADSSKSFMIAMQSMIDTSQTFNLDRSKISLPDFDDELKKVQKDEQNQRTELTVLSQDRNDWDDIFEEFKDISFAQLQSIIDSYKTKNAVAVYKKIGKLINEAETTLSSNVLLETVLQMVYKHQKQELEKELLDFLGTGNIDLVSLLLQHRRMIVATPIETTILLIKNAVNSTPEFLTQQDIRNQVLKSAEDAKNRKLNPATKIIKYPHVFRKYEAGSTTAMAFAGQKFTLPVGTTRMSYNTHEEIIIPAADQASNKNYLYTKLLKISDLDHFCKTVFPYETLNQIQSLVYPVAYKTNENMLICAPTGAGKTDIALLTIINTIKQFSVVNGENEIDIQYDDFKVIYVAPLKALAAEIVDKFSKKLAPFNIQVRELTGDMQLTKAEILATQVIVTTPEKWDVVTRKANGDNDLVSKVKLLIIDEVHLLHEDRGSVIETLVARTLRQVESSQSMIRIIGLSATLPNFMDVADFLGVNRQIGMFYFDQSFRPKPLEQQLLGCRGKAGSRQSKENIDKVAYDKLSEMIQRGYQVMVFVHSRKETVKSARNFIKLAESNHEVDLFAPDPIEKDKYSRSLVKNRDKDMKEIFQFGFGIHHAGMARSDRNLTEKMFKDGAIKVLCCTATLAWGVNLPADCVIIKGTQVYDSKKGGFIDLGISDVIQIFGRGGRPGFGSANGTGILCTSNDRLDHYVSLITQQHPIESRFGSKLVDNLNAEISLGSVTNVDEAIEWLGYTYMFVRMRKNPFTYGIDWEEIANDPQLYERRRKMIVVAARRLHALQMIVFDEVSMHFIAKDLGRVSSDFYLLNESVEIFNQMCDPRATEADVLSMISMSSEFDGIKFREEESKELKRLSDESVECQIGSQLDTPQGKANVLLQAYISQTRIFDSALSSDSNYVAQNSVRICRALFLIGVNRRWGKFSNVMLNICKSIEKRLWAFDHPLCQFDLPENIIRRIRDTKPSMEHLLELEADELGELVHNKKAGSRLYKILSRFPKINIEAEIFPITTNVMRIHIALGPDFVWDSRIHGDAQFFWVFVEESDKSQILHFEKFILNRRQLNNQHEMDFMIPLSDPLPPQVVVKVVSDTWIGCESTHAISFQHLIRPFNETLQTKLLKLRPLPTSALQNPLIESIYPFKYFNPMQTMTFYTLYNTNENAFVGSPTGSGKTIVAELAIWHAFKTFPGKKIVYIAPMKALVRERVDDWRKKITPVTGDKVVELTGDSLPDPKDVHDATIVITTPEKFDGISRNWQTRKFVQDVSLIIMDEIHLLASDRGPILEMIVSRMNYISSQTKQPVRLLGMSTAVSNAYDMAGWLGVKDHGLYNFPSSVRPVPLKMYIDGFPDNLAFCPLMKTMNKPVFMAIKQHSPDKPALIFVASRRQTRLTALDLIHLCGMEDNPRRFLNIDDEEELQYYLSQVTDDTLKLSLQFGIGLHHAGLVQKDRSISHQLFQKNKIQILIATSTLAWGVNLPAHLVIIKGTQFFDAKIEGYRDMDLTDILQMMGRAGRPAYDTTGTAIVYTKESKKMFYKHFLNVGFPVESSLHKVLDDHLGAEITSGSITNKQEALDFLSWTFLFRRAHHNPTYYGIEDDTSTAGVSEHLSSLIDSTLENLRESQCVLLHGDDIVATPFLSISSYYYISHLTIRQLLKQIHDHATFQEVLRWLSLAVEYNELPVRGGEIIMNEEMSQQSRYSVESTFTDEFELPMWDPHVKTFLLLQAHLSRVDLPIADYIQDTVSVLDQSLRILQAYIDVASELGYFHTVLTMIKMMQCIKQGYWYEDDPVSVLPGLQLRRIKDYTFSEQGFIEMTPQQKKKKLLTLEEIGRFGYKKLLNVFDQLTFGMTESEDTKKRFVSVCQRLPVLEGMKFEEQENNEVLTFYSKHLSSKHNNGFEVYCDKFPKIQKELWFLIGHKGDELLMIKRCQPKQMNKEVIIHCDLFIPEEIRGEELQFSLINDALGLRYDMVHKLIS

[2] = target: T1, Ski2-like helicase 1 (Slh1), subunit of …; test: cryo-EM structure; pre-splitting samples: ubiquitinated CGN6-stalled disomes with wild-type RQT, or ubiquitinated CGN12-stalled disomes with K316R-RQT (RQT*), 1 mM ATP, 5 min at 25 °C; RQT seen on the lead ribosome of intact disomes
[3] = target: T2, Slh1-K316R, ATPase-deficient Walker A mutant of the N-terminal cassette, subunit of K316R-RQT (yeast, UniProt P53327 1-1967, K316R); test: as above
T2 construct: Slh1 (Rqt2) of yeast RQT, 1967 amino acids, with the ATPase-deficient mutation K316R; Probably made and tagged like the wild-type Slh1-FTP; also called K316R-Slh1; source: purified RQT complex (K316R-Slh1 mutant)
T2 sequence (P53327 whole entry K316R): as the sequence (P53327 whole entry, the tested form may be a part, one chain of several) above, with K316R counted along it

B1: ribosomal protein uS5 of the 40S subunit (natural protein, UniProt P25443 1-254, looked up)
chain: MSAPEAQQQKRGGFGGRNRGRPNRRGPRNTEEKGWVPVTKLGRLVKAGKITTIEEIFLHSLPVKEFQIIDTLLPGLQDEVMNIKPVQKQTRAGQRTRFKAVVVVGDSNGHVGLGIKTAKEVAGAIRAGIIIAKLSVIPIRRGYWGTNLGQPHSLATKTTGKCGSVTVRLIPAPRGSGIVASPAVKKLLQLAGVEDVYTQSNGKTRTLENTLKAAFVAIGNTYGFLTPNLWAEQPLPVSPLDIYSDEASAQKKRF
notes: uS5 (Rps2), 40S ribosomal protein of yeast; its usually flexible N-terminus is seen as extra density; Stood in the assay as part of the whole 80S ribosome; source: endogenous, in ribosomes of a yeast cell-free translation extract; ribosome-nascent chain complexes purified (His-tag Dynabeads, sucrose gradient)
- binding result [1]: binds

B2: Rqt4, zinc-finger containing subunit of the RQT complex (natural protein, yeast)
chain: MTRKQAIDYAIKQVPQILPLEESDVKALCEQVLSTSSDDPEQIASKFLEFLGHEDLSFEFVMKFNELLNQNDKKEEKKTKNVHLEHTAPTSWKNESKQPTNNYINKKGDEKPKKLKDEKKSSTTRPTVQPSNQSTQSNPIKEKKEHRSKGKLQSLQEIDEAIKMLELRDSGSSKNCNCQGTRHPVFDIAPNCLHCGKVVCVIEGLNKGKCGHCHEQLISDNERTQMVEILNQEKNELNGSSSSLSNASNGANVPKKKTKTYKITSGMGKNLFAEQDKLFDFIERKRERERKRNEVLKLQEEKEESEAKERQASEHDHKAEENPELLAAQERLDRLLYFQDTSAERTKIIDNASDFDMNQEVGLWGSARERALALKKQQRNLRKWEKVEKERNGRREKYVVSMNIGSNGKVTMTEVPKDTENVIAGSDDDISDISDEEDISDLKHIHALKSEINTTKSLENLHLQSKAWDYERDKKQFDRPTYVKKNSDTAQQNRKTEEKAHDMQAYDLKSRVQVDQNADASVEQNILAVL
notes: Rqt4 of yeast RQT; two parts modelled (residues 171-219 and 323-381); PWI-like domain 1-74, helices flanking the zinc finger and the C-terminus not visible
- binding result [2]: binds
- binding result [3]: binds

B3: Cue3 (Rqt3), ubiquitin-binding CUE domain containing subunit of the RQT complex (natural protein, yeast, UniProt P53137 1-624, looked up)
chain: MLSRYNRVIEINGGNADISLPIVKFPPFKLRAQLIEKDPVVWLHLIETYVTYFEYLMQGANVELLDESTLDHLRLFLRTYLHEIADEEGKLLSLGINHDVSEQLYLLKGWIFSLIKKCGLLHLQIFGDSLWNLIKVYVRRNPDSIRGLIDGSLKPRINTQRVQLDKSYQVQQHLKQLIESGKFKRIDLRCVEDLLSAKSMQPNKFAENFFTANWIEILEALWAKGQGRGHKEARELIIISLFSVSADRLLKITKELGISNFETLALYPLLGTMLINEGVHKRLPDLKSKLLFLNLGGLSMDEGDHMSYPTSSGTEVNEEQLSALMELFPQFSKYQLSQTLLAYDNNIELVTNKIFEDPTIIEAFSREPAEEEVEPVSDGDNASFTEELSILDRGDSSKNKELDKKIISEGVPDELRNKTLTRALKLLYEADEDERDDTYDEADVNRSDPSKRIGLQEDEESYDTKDDSNEVRQDHNYHIVEAYLWNLLKEDPKLFERSKRGTKVRKTMKEMTSWSDEKIEGWCRMLERSPTRARLLEKKFMFKGNSKTGKTSYVHNRDSQNDGNVVKEQAKQKKSENIKKHEPQSTEQKKRQHAKNEKRKGARANHNRKKGHDKKLARAGNNAI
notes: Cue3 (Rqt3) of yeast RQT; only the N-terminal helical domain 1-297 modelled; CUE domain 298-360, four-helix bundle 468-541 and C-terminus 542-624 not visible
- binding result [2]: binds
- binding result [3]: binds

Now from value to binder:

- binding result [1]: binds
B4: ribosomal protein uS3 of the 40S subunit (natural protein, UniProt P05750 1-240, looked up)
chain: MVALISKKRKLVADGVFYAELNEFFTRELAEEGYSGVEVRVTPTKTEVIIRATRTQDVLGENGRRINELTLLVQKRFKYAPGTIVLYAERVQDRGLSAVAQAESMKFKLLNGLAIRRAAYGVVRYVMESGAKGCEVVVSGKLRAARAKAMKFADGFLIHSGQPVNDFIDTATRHVLMRQGVLGIKVKIMRDPAKSRTGPKALPDAVTIIEPKEEEPILAPSVKDYRPAEETEAQAEPVEA
notes: uS3 (Rps3), 40S ribosomal protein of yeast, part of the stalled ribosome; Stood in the assay as part of the whole 80S ribosome or disome, which had been ubiquitinated in vitro with Hel2; source: endogenous, in ribosomes of a yeast cell-free translation extract; ribosome-nascent chain complexes purified (His-tag Dynabeads, sucrose gradient)

- binding result [1]: binds
B5: RACK1 (Asc1) of the 40S head (natural protein, UniProt P38011 1-319, looked up)
chain: MASNEVLVLRGTLEGHNGWVTSLATSAGQPNLLLSASRDKTLISWKLTGDDQKFGVPVRSFKGHSHIVQDCTLTADGAYALSASWDKTLRLWDVATGETYQRFVGHKSDVMSVDIDKKASMIISGSRDKTIKVWTIKGQCLATLLGHNDWVSQVRVVPNEKADDDSVTIISAGNDKMVKAWNLNQFQIEADFIGHNSNINTLTASPDGTLIASAGKDGEIMLWNLAAKKAMYTLSAQDEVFSLAFSPNRYWLAAATATGIKVFSLDPQYLVDDLRPEFAGYSKAAEPHAVSLAWSADGQTLFAGYTDNVIRVWQVMTAN
notes: RACK1 (Asc1), protein at the back side of the 40S head of the yeast ribosome; Stood in the assay as part of the whole 80S ribosome; source: endogenous, in ribosomes of a yeast cell-free translation extract; ribosome-nascent chain complexes purified (His-tag Dynabeads, sucrose gradient)
